From patent publication US20130005646A1 (Novo Nordisk, published 2013)
Starred links: 1 amine or outer side, 2 acyl side, 3 side chain; linkers in the order of their positions; H or OH if unused. Positions of bridges follow the written chain, without caps; N, C: chain ends. *: point of attachment. C20 diacid = O=C(O)CCCCCCCCCCCCCCCCCCC(=O)*; γGlu = O=C(O)[C@H](CCC(=O)[*:2])N[*:1]

T1: human amylin 3(a) receptor (human calcitonin receptor + RAMP-3) (human, UniProt P30988 25-474; O60896 24-148)
T1 sequence (looked up) 1: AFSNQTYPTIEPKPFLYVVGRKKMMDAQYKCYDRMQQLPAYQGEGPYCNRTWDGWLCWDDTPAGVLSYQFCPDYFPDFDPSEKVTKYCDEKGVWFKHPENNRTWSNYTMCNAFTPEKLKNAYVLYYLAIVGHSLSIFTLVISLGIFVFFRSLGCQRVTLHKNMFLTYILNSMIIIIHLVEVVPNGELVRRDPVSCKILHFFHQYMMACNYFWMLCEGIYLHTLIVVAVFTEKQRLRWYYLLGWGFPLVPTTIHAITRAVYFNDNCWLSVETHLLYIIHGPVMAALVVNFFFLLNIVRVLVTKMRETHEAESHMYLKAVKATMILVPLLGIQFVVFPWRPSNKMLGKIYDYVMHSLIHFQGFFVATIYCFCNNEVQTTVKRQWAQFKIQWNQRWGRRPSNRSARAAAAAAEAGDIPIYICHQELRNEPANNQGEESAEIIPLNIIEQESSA
T1 sequence (looked up) 2: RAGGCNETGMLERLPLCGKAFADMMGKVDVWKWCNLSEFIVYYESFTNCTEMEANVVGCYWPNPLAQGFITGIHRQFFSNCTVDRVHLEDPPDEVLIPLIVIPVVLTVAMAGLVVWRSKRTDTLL

T2: human calcitonin (a) receptor (human, UniProt P30988 25-474)
T2 sequence (looked up): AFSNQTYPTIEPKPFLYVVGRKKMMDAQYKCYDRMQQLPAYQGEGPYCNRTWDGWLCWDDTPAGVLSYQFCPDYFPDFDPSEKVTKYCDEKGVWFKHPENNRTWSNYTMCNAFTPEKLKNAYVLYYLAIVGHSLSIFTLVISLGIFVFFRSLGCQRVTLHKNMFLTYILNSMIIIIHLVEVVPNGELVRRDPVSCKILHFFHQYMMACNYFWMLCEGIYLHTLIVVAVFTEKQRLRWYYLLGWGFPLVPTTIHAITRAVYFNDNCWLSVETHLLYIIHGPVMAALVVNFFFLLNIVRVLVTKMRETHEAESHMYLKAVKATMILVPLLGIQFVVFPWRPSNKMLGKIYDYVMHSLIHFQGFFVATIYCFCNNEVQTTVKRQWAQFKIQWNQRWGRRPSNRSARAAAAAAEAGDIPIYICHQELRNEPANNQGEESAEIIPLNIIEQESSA


Experiments:
[1] = target: T1, human amylin 3(a) receptor (human …); assay: cell-based or functional assay
[2] = target: T2, human calcitonin (a) receptor; assay: cell-based or functional assay

Binder | Amylin receptor human EC50 [1] | CTa receptor human EC50 [2]
{C20 diacid-γGlu}-ERECNTATCATQRLAEFLRHSSQQFGPILPPTQVGSQTP-NH2 (disulfide 4-9; SMILES CC[C@H](C)[C@H](NC(=O)[C@@H]1CCCN1C(=O)CNC(=O)[C@H](Cc1ccccc1)NC(=O)[C@H](CCC(N)=O)NC(=O)[C@H](CCC(N)=O)NC(=O)[C@H](CO)NC(=O)[C@H](CO)NC(=O)[C@H](Cc1c[nH]cn1)NC(=O)[C@H](CCCNC(=N)N)NC(=O)[C@H](CC(C)C)NC(=O)[C@H](Cc1ccccc1)NC(=O)[C@H](CCC(=O)O)NC(=O)[C@H](C)NC(=O)[C@H](CC(C)C)NC(=O)[C@H](CCCNC(=N)N)NC(=O)[C@H](CCC(N)=O)NC(=O)[C@@H](NC(=O)[C@H](C)NC(=O)[C@@H]1CSSC[C@H](NC(=O)[C@H](CCC(=O)O)NC(=O)[C@H](CCCNC(=N)N)NC(=O)[C@H](CCC(=O)O)NC(=O)CC[C@H](NC(=O)CCCCCCCCCCCCCCCCCCC(=O)O)C(=O)O)C(=O)N[C@@H](CC(N)=O)C(=O)N[C@@H]([C@@H](C)O)C(=O)N[C@@H](C)C(=O)N[C@@H]([C@@H](C)O)C(=O)N1)[C@@H](C)O)C(=O)N[C@@H](CC(C)C)C(=O)N1CCC[C@H]1C(=O)N1CCC[C@H]1C(=O)N[C@H](C(=O)N[C@@H](CCC(N)=O)C(=O)N[C@H](C(=O)NCC(=O)N[C@@H](CO)C(=O)N[C@@H](CCC(N)=O)C(=O)N[C@H](C(=O)N1CCC[C@H]1C(N)=O)[C@@H](C)O)C(C)C)[C@@H](C)O) | 1.71 nM | 3.57 nM
{C20 diacid-γGlu}-ERECNTATCATQRLAEFLRHSSQNFGPILPPTQVGSQTP-NH2 (disulfide 4-9; SMILES CC[C@H](C)[C@H](NC(=O)[C@@H]1CCCN1C(=O)CNC(=O)[C@H](Cc1ccccc1)NC(=O)[C@H](CC(N)=O)NC(=O)[C@H](CCC(N)=O)NC(=O)[C@H](CO)NC(=O)[C@H](CO)NC(=O)[C@H](Cc1c[nH]cn1)NC(=O)[C@H](CCCNC(=N)N)NC(=O)[C@H](CC(C)C)NC(=O)[C@H](Cc1ccccc1)NC(=O)[C@H](CCC(=O)O)NC(=O)[C@H](C)NC(=O)[C@H](CC(C)C)NC(=O)[C@H](CCCNC(=N)N)NC(=O)[C@H](CCC(N)=O)NC(=O)[C@@H](NC(=O)[C@H](C)NC(=O)[C@@H]1CSSC[C@H](NC(=O)[C@H](CCC(=O)O)NC(=O)[C@H](CCCNC(=N)N)NC(=O)[C@H](CCC(=O)O)NC(=O)CC[C@H](NC(=O)CCCCCCCCCCCCCCCCCCC(=O)O)C(=O)O)C(=O)N[C@@H](CC(N)=O)C(=O)N[C@@H]([C@@H](C)O)C(=O)N[C@@H](C)C(=O)N[C@@H]([C@@H](C)O)C(=O)N1)[C@@H](C)O)C(=O)N[C@@H](CC(C)C)C(=O)N1CCC[C@H]1C(=O)N1CCC[C@H]1C(=O)N[C@H](C(=O)N[C@@H](CCC(N)=O)C(=O)N[C@H](C(=O)NCC(=O)N[C@@H](CO)C(=O)N[C@@H](CCC(N)=O)C(=O)N[C@H](C(=O)N1CCC[C@H]1C(N)=O)[C@@H](C)O)C(C)C)[C@@H](C)O) | 1.06 nM | 3.71 nM
{C20 diacid-γGlu}-ERECNTATCATQRLAEFLRHSSQNFGPILPPTNVGSQTP-NH2 (disulfide 4-9; SMILES CC[C@H](C)[C@H](NC(=O)[C@@H]1CCCN1C(=O)CNC(=O)[C@H](Cc1ccccc1)NC(=O)[C@H](CC(N)=O)NC(=O)[C@H](CCC(N)=O)NC(=O)[C@H](CO)NC(=O)[C@H](CO)NC(=O)[C@H](Cc1c[nH]cn1)NC(=O)[C@H](CCCNC(=N)N)NC(=O)[C@H](CC(C)C)NC(=O)[C@H](Cc1ccccc1)NC(=O)[C@H](CCC(=O)O)NC(=O)[C@H](C)NC(=O)[C@H](CC(C)C)NC(=O)[C@H](CCCNC(=N)N)NC(=O)[C@H](CCC(N)=O)NC(=O)[C@@H](NC(=O)[C@H](C)NC(=O)[C@@H]1CSSC[C@H](NC(=O)[C@H](CCC(=O)O)NC(=O)[C@H](CCCNC(=N)N)NC(=O)[C@H](CCC(=O)O)NC(=O)CC[C@H](NC(=O)CCCCCCCCCCCCCCCCCCC(=O)O)C(=O)O)C(=O)N[C@@H](CC(N)=O)C(=O)N[C@@H]([C@@H](C)O)C(=O)N[C@@H](C)C(=O)N[C@@H]([C@@H](C)O)C(=O)N1)[C@@H](C)O)C(=O)N[C@@H](CC(C)C)C(=O)N1CCC[C@H]1C(=O)N1CCC[C@H]1C(=O)N[C@H](C(=O)N[C@@H](CC(N)=O)C(=O)N[C@H](C(=O)NCC(=O)N[C@@H](CO)C(=O)N[C@@H](CCC(N)=O)C(=O)N[C@H](C(=O)N1CCC[C@H]1C(N)=O)[C@@H](C)O)C(C)C)[C@@H](C)O) | 0.411 nM | 2.19 nM

Results, then the binder that gave them:

Amylin receptor human EC50 [1] | CTa receptor human EC50 [2] | Binder
1.13 nM | 1.19 nM | {C20 diacid-γGlu}-EERCNTATCATQRLAEFLRHSSQNFGPILPPTNVGSQTP-NH2 (disulfide 4-9; SMILES CC[C@H](C)[C@H](NC(=O)[C@@H]1CCCN1C(=O)CNC(=O)[C@H](Cc1ccccc1)NC(=O)[C@H](CC(N)=O)NC(=O)[C@H](CCC(N)=O)NC(=O)[C@H](CO)NC(=O)[C@H](CO)NC(=O)[C@H](Cc1c[nH]cn1)NC(=O)[C@H](CCCNC(=N)N)NC(=O)[C@H](CC(C)C)NC(=O)[C@H](Cc1ccccc1)NC(=O)[C@H](CCC(=O)O)NC(=O)[C@H](C)NC(=O)[C@H](CC(C)C)NC(=O)[C@H](CCCNC(=N)N)NC(=O)[C@H](CCC(N)=O)NC(=O)[C@@H](NC(=O)[C@H](C)NC(=O)[C@@H]1CSSC[C@H](NC(=O)[C@H](CCCNC(=N)N)NC(=O)[C@H](CCC(=O)O)NC(=O)[C@H](CCC(=O)O)NC(=O)CC[C@H](NC(=O)CCCCCCCCCCCCCCCCCCC(=O)O)C(=O)O)C(=O)N[C@@H](CC(N)=O)C(=O)N[C@@H]([C@@H](C)O)C(=O)N[C@@H](C)C(=O)N[C@@H]([C@@H](C)O)C(=O)N1)[C@@H](C)O)C(=O)N[C@@H](CC(C)C)C(=O)N1CCC[C@H]1C(=O)N1CCC[C@H]1C(=O)N[C@H](C(=O)N[C@@H](CC(N)=O)C(=O)N[C@H](C(=O)NCC(=O)N[C@@H](CO)C(=O)N[C@@H](CCC(N)=O)C(=O)N[C@H](C(=O)N1CCC[C@H]1C(N)=O)[C@@H](C)O)C(C)C)[C@@H](C)O)
0.232 nM | 1.13 nM | {C20 diacid-γGlu}-ERECNTATCATQRLAEFLRHSSQNFGPILPPTNVGSNTP-NH2 (disulfide 4-9; SMILES CC[C@H](C)[C@H](NC(=O)[C@@H]1CCCN1C(=O)CNC(=O)[C@H](Cc1ccccc1)NC(=O)[C@H](CC(N)=O)NC(=O)[C@H](CCC(N)=O)NC(=O)[C@H](CO)NC(=O)[C@H](CO)NC(=O)[C@H](Cc1c[nH]cn1)NC(=O)[C@H](CCCNC(=N)N)NC(=O)[C@H](CC(C)C)NC(=O)[C@H](Cc1ccccc1)NC(=O)[C@H](CCC(=O)O)NC(=O)[C@H](C)NC(=O)[C@H](CC(C)C)NC(=O)[C@H](CCCNC(=N)N)NC(=O)[C@H](CCC(N)=O)NC(=O)[C@@H](NC(=O)[C@H](C)NC(=O)[C@@H]1CSSC[C@H](NC(=O)[C@H](CCC(=O)O)NC(=O)[C@H](CCCNC(=N)N)NC(=O)[C@H](CCC(=O)O)NC(=O)CC[C@H](NC(=O)CCCCCCCCCCCCCCCCCCC(=O)O)C(=O)O)C(=O)N[C@@H](CC(N)=O)C(=O)N[C@@H]([C@@H](C)O)C(=O)N[C@@H](C)C(=O)N[C@@H]([C@@H](C)O)C(=O)N1)[C@@H](C)O)C(=O)N[C@@H](CC(C)C)C(=O)N1CCC[C@H]1C(=O)N1CCC[C@H]1C(=O)N[C@H](C(=O)N[C@@H](CC(N)=O)C(=O)N[C@H](C(=O)NCC(=O)N[C@@H](CO)C(=O)N[C@@H](CC(N)=O)C(=O)N[C@H](C(=O)N1CCC[C@H]1C(N)=O)[C@@H](C)O)C(C)C)[C@@H](C)O)
0.039 nM | 0.034 nM | {C20 diacid-γGlu}-KCNTATCATQRLAEFLVRSSQNFGAPLSSTNVGSNTP-NH2 (disulfide 2-7; SMILES CC(C)C[C@H](NC(=O)[C@H](CCCNC(=N)N)NC(=O)[C@H](CCC(N)=O)NC(=O)[C@@H](NC(=O)[C@H](C)NC(=O)[C@@H]1CSSC[C@H](NC(=O)[C@H](CCCCN)NC(=O)CC[C@H](NC(=O)CCCCCCCCCCCCCCCCCCC(=O)O)C(=O)O)C(=O)N[C@@H](CC(N)=O)C(=O)N[C@@H]([C@@H](C)O)C(=O)N[C@@H](C)C(=O)N[C@@H]([C@@H](C)O)C(=O)N1)[C@@H](C)O)C(=O)N[C@@H](C)C(=O)N[C@@H](CCC(=O)O)C(=O)N[C@@H](Cc1ccccc1)C(=O)N[C@@H](CC(C)C)C(=O)N[C@H](C(=O)N[C@@H](CCCNC(=N)N)C(=O)N[C@@H](CO)C(=O)N[C@@H](CO)C(=O)N[C@@H](CCC(N)=O)C(=O)N[C@@H](CC(N)=O)C(=O)N[C@@H](Cc1ccccc1)C(=O)NCC(=O)N[C@@H](C)C(=O)N1CCC[C@H]1C(=O)N[C@@H](CC(C)C)C(=O)N[C@@H](CO)C(=O)N[C@@H](CO)C(=O)N[C@H](C(=O)N[C@@H](CC(N)=O)C(=O)N[C@H](C(=O)NCC(=O)N[C@@H](CO)C(=O)N[C@@H](CC(N)=O)C(=O)N[C@H](C(=O)N1CCC[C@H]1C(N)=O)[C@@H](C)O)C(C)C)[C@@H](C)O)C(C)C)
